Data taken from patent US20180362652A1 (Biogen, published 2018).
Like-named read-outs stand apart in the source and are kept apart here.

T1: cynomolgus monkey BDCA2 (full-length, cell surface, E73 SNP form) (cynomolgus monkey, UniProt Q8WTT0 1-213 (human entry))
T1 construct: also called cyno BDCA2; surface cynomolgus monkey BDCA2
T1 chain: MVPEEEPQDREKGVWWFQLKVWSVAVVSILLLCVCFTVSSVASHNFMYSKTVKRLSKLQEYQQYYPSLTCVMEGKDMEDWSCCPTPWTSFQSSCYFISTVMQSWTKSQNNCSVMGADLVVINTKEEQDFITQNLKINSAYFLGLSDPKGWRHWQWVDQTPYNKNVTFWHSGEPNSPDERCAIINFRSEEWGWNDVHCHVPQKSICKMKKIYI

T2: human BDCA2 (full-length, cell surface) (human, UniProt Q8WTT0 1-213)
T2 construct: also called huBDCA2; surface human BDCA2
T2 sequence: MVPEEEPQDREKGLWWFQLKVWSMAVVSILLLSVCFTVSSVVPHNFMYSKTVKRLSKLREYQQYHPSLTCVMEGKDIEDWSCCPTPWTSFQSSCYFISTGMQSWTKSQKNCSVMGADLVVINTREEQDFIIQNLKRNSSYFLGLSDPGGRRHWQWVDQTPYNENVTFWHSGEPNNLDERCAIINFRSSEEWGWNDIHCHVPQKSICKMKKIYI

T3: monomeric huBDCA2 ectodomain (human, UniProt Q8WTT0 45-213)
T3 construct: Prepared by proteolytic cleavage of the purified muIgG2a Fc-huBDCA2 fusion protein (pEAG2423); also called human BDCA2 ectodomain; human BDCA2 ECD
T3 sequence: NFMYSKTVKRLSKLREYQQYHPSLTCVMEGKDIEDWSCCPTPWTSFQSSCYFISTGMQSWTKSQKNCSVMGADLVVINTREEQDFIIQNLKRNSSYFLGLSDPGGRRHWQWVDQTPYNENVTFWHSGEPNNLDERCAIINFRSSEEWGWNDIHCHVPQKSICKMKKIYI


Tests used:
[1] = biological target: T1, cynomolgus monkey BDCA2 (full-length, …); assay: direct binding FACS, conditioned medium on CHO cells co-expressing BDCA2 and FcεRIγ
Method: (§1) Conditioned medium was assayed by direct binding FACS on stably transfected DG44 CHO cells co-expressing full-length BDCA2 and FcεRIγ cDNAs (human or cynomolgus monkey), (relevant expression vectors are human BDCA2/FcεRIγ: pEAG2456, cyno BDCA2/FcεRIγ: pEAG2668).

[2] = biological target: T2, human BDCA2 (full-length, cell surface); assay: as above
Method: as §1

[3] = biological target: T3, monomeric huBDCA2 ectodomain; assay: Octet, mAb from conditioned medium on anti-human Fc tips, monomeric huBDCA2 in solution
Method: Backmutation to the unpaired cysteine, i.e., S95C, was constructed by site-directed mutagenesis producing plasmid pYL749. Variants S95T, S95A, and S95V were constructed by site-directed mutagenesis producing plasmids pYL750, pYL751, and pYL752, respectively. The full-length light chain cDNA sequences in the resultant plasmids were confirmed by DNA sequencing. […] Conditioned medium was harvested at 2 days post-transfection. […] Conditioned medium containing the C95 variant mAbs was assayed by Octet for binding to human BDCA2 ectodomain. Antibodies from conditioned medium from transiently transfected cells were bound to anti-human Fc tips, then monomeric huBDCA2 was flowed over the Octet tips, to examine binding and dissociation.

[4] = biological target: T3, monomeric huBDCA2 ectodomain; assay: as above; remark: listed apart in the source
Method: The monomeric huBDCA2 ectodomain was prepared by proteolytic cleavage from the purified muIgG2a Fc-huBDCA2 fusion protein (relevant plasmid: pEAG2423). Antibodies from conditioned medium from transiently transfected cells were bound to anti-human Fc tips, and then monomeric huBDCA2 was flowed over the Octet tips, to examine binding and dissociation.

Row | Binder | binding result [1] | binding result [2] | also measured
1 | hu24F4 H3/L2 (antibody, V domains shown, Humanized variant, human IgG1/kappa, conditioned medium of 293E cells; also called H3 series of hu24F4) VH: EVQLVESGGGLVKPGGSLRLSCAASGFTFSTYTMSWVRQAPGKGLEWVSTISPGDSFGYYYPDSVQGRFTISRDNAKNSLYLQMNSLRAEDTAVYYCARDIYYNYGAWFAYWGQGTLVTVSS VL: DIQLTQSPSSLSVSVGDRATISCKASQSVDYDGDSYMNWYQQKPGKAPKLLIYAASTLESGVPSRFSGSGSGTDFTLTISSVQPEDFATYYCQQSNEDPRTFGQGTKVEIK | binds | binds | –
2 | hu24F4 H4/L2 (antibody, V domains shown, Humanized variant, human IgG1/kappa, conditioned medium of 293E cells; also called H4 series of hu24F4) VH: DVQLVESGGGLVKPGGSLRLSCAASGFTFSTYTMSWVRQAPGKGLEWVATISPGDSFGYYYPDSVQGRFTISRDNAKNSLYLQMNSLRAEDTAVYYCTRDIYYNYGAWFAYWGQGTLVTVSS VL: DIQLTQSPSSLSVSVGDRATISCKASQSVDYDGDSYMNWYQQKPGKAPKLLIYAASTLESGVPSRFSGSGSGTDFTLTISSVQPEDFATYYCQQSNEDPRTFGQGTKVEIK | binds | binds | binding result [3]: binds
3 | hu24F4 H4/L1 S95T (antibody, human IgG1, V domains shown, Human IgG1/kappa; conditioned medium of 293E cells; also called H4-L1-C95T (YL750/YL746); hu24F4 H4/L1 C95T) VH: DVQLVESGGGLVKPGGSLRLSCAASGFTFSTYTMSWVRQAPGKGLEWVATISPGDSFGYYYPDSVQGRFTISRDNAKNSLYLQMNSLRAEDTAVYYCTRDIYYNYGAWFAYWGQGTLVTVSS VL: DIQLTQSPSSLSASVGDRVTITCKASQSVDYDGDSYMNWYQQKPGKAPKLLIYAASTLESGVPSRFSGSGSGTDFTLTISSLQPEDFATYYCQQTNEDPRTFGQGTKVEIK | – | – | Kd [3]: 0.392 nM; koff [3]: 0.00037 s⁻¹; kon [3]: 944000 M⁻¹ s⁻¹
4 | hu24F4 H6/L0 (antibody, V domains shown, Humanized variant, human IgG1/kappa, conditioned medium of 293E cells; also called H6 series of hu24F4) VH: DVQLVESGGGLVKPGGSLRLSCAASGFTFSTYTMSWVRQAPGKGLEWVATISGGNNYGYSYPDSVKGRFTISRDNAKNSLYLQMNSLRAEDTAVYYCTRDIYYNYGAWFAYWGQGTLVTVSS VL: AIQLTQSPSSLSASVGDRVTITCKASQSVDYDGDSYMNWYQQKPGKAPKLLIYAASTLESGVPSRFSGSGSGTDFTLTISSLQPEDFATYYCQQSNEDPRTFGQGTKVEIK | – | – | Kd [4]: 5 nM; koff [4]: 0.00137 s⁻¹; kon [4]: 273000 M⁻¹ s⁻¹
5 | hu24F4 H4/L1 S95V (antibody, human IgG1, V domains shown, Human IgG1/kappa; conditioned medium of 293E cells; also called H4-L1-C95V (YL752/YL746)) VH: DVQLVESGGGLVKPGGSLRLSCAASGFTFSTYTMSWVRQAPGKGLEWVATISPGDSFGYYYPDSVQGRFTISRDNAKNSLYLQMNSLRAEDTAVYYCTRDIYYNYGAWFAYWGQGTLVTVSS VL: DIQLTQSPSSLSASVGDRVTITCKASQSVDYDGDSYMNWYQQKPGKAPKLLIYAASTLESGVPSRFSGSGSGTDFTLTISSLQPEDFATYYCQQVNEDPRTFGQGTKVEIK | – | – | Kd [3]: 0.323 nM; koff [3]: 0.000301 s⁻¹; kon [3]: 933000 M⁻¹ s⁻¹
6 | hu24F4 H6/L2 (antibody, V domains shown, Humanized variant, human IgG1/kappa, conditioned medium of 293E cells; also called H6 series of hu24F4) VH: DVQLVESGGGLVKPGGSLRLSCAASGFTFSTYTMSWVRQAPGKGLEWVATISGGNNYGYSYPDSVKGRFTISRDNAKNSLYLQMNSLRAEDTAVYYCTRDIYYNYGAWFAYWGQGTLVTVSS VL: DIQLTQSPSSLSVSVGDRATISCKASQSVDYDGDSYMNWYQQKPGKAPKLLIYAASTLESGVPSRFSGSGSGTDFTLTISSVQPEDFATYYCQQSNEDPRTFGQGTKVEIK | binds | binds | –
7 | hu24F4 H5/L2 (antibody, V domains shown, Humanized variant, human IgG1/kappa, conditioned medium of 293E cells; also called H5 series of hu24F4) VH: DVQLVQSGGGLVKPGGSLRLSCAASGFTFSTYTMSWVRQAPGKGLEWVATISPGDSFGYYYPDSVQGRFTISRDNAKNSLYLQMNRLRAEDTAVYYCTRDIYYNYGAWFAYWGRGTLVTVSS VL: DIQLTQSPSSLSVSVGDRATISCKASQSVDYDGDSYMNWYQQKPGKAPKLLIYAASTLESGVPSRFSGSGSGTDFTLTISSVQPEDFATYYCQQSNEDPRTFGQGTKVEIK | binds | binds | binding result [3]: binds
8 | hu24F4 H4/L1 S95C (antibody, human IgG1, V domains shown, Human IgG1/kappa; conditioned medium of 293E cells; also called H4-L1-S95C (YL749/YL746)) VH: DVQLVESGGGLVKPGGSLRLSCAASGFTFSTYTMSWVRQAPGKGLEWVATISPGDSFGYYYPDSVQGRFTISRDNAKNSLYLQMNSLRAEDTAVYYCTRDIYYNYGAWFAYWGQGTLVTVSS VL: DIQLTQSPSSLSASVGDRVTITCKASQSVDYDGDSYMNWYQQKPGKAPKLLIYAASTLESGVPSRFSGSGSGTDFTLTISSLQPEDFATYYCQQCNEDPRTFGQGTKVEIK | – | – | Kd [3]: 0.289 nM; koff [3]: 0.000279 s⁻¹; kon [3]: 967000 M⁻¹ s⁻¹
9 | hu24F4 H5/L1 C95A (antibody, V domains shown, also called H5/L1 C95A variant) VH: DVQLVQSGGGLVKPGGSLRLSCAASGFTFSTYTMSWVRQAPGKGLEWVATISPGDSFGYYYPDSVQGRFTISRDNAKNSLYLQMNRLRAEDTAVYYCTRDIYYNYGAWFAYWGRGTLVTVSS VL: DIQLTQSPSSLSASVGDRVTITCKASQSVDYDGDSYMNWYQQKPGKAPKLLIYAASTLESGVPSRFSGSGSGTDFTLTISSLQPEDFATYYCQQANEDPRTFGQGTKVEIKR | – | – | binding result [3]: binds

Second part, led by results:

Row | binding result [1] | binding result [2] | Binder | also measured
10 | no binding | – | hu24F4 H2/L0 (antibody, V domains shown, Humanized variant, human IgG1/kappa, conditioned medium of 293E cells; also called H2 series of hu24F4) VH: EVQLVESGGGLVKPGGSLRLSCAASGFTFSTYTMSWVRQAPGKGLEWVSTISPGDSSTIYYADSVKGRFTISRDNAKNSLYLQMNSLRAEDTAVYYCARDIYYNYGAWFAYWGQGTLVTVSS VL: AIQLTQSPSSLSASVGDRVTITCKASQSVDYDGDSYMNWYQQKPGKAPKLLIYAASTLESGVPSRFSGSGSGTDFTLTISSLQPEDFATYYCQQSNEDPRTFGQGTKVEIK | –
11 | no binding | – | hu24F4 H0/L0 (antibody, V domains shown, Humanized variant, human IgG1/kappa, conditioned medium of 293E cells; also called H0 series of hu24F4) VH: EVQLVESGGGLVKPGGSLRLSCAASGFTFSTYTMSWVRQAPGKGLEWVSAISGSGGSTYYADSVKGRFTISRDNAKNSLYLQMNSLRAEDTAVYYCARDIYYNYGAWFAYWGQGTLVTVSS VL: AIQLTQSPSSLSASVGDRVTITCKASQSVDYDGDSYMNWYQQKPGKAPKLLIYAASTLESGVPSRFSGSGSGTDFTLTISSLQPEDFATYYCQQSNEDPRTFGQGTKVEIK | –
12 | no binding | no binding | hu24F4 H1/L2 (antibody, V domains shown, Humanized variant, human IgG1/kappa, conditioned medium of 293E cells; also called H1 series of hu24F4) VH: EVQLVESGGGLVKPGGSLRLSCAASGFTFSTYTMSWVRQAPGKGLEWVSTISPGDSFGYYPDSVKGRFTISRDNAKNSLYLQMNSLRAEDTAVYYCARDIYYNYGAWFAYWGQGTLVTVSS VL: DIQLTQSPSSLSVSVGDRATISCKASQSVDYDGDSYMNWYQQKPGKAPKLLIYAASTLESGVPSRFSGSGSGTDFTLTISSVQPEDFATYYCQQSNEDPRTFGQGTKVEIK | –
13 | no binding | no binding | hu24F4 H2/L2 (antibody, V domains shown, Humanized variant, human IgG1/kappa, conditioned medium of 293E cells; also called H2 series of hu24F4) VH: EVQLVESGGGLVKPGGSLRLSCAASGFTFSTYTMSWVRQAPGKGLEWVSTISPGDSSTIYYADSVKGRFTISRDNAKNSLYLQMNSLRAEDTAVYYCARDIYYNYGAWFAYWGQGTLVTVSS VL: DIQLTQSPSSLSVSVGDRATISCKASQSVDYDGDSYMNWYQQKPGKAPKLLIYAASTLESGVPSRFSGSGSGTDFTLTISSVQPEDFATYYCQQSNEDPRTFGQGTKVEIK | –
14 | no binding | no binding | hu24F4 H0/L2 (antibody, V domains shown, Humanized variant, human IgG1/kappa, conditioned medium of 293E cells; also called H0 series of hu24F4) VH: EVQLVESGGGLVKPGGSLRLSCAASGFTFSTYTMSWVRQAPGKGLEWVSAISGSGGSTYYADSVKGRFTISRDNAKNSLYLQMNSLRAEDTAVYYCARDIYYNYGAWFAYWGQGTLVTVSS VL: DIQLTQSPSSLSVSVGDRATISCKASQSVDYDGDSYMNWYQQKPGKAPKLLIYAASTLESGVPSRFSGSGSGTDFTLTISSVQPEDFATYYCQQSNEDPRTFGQGTKVEIK | –
15 | no binding | – | hu24F4 H1/L0 (antibody, V domains shown, Humanized variant, human IgG1/kappa, conditioned medium of 293E cells; also called H1 series of hu24F4) VH: EVQLVESGGGLVKPGGSLRLSCAASGFTFSTYTMSWVRQAPGKGLEWVSTISPGDSFGYYPDSVKGRFTISRDNAKNSLYLQMNSLRAEDTAVYYCARDIYYNYGAWFAYWGQGTLVTVSS VL: AIQLTQSPSSLSASVGDRVTITCKASQSVDYDGDSYMNWYQQKPGKAPKLLIYAASTLESGVPSRFSGSGSGTDFTLTISSLQPEDFATYYCQQSNEDPRTFGQGTKVEIK | –
